The target of the experiment is T1, ALIX (endogenous, HEK293 cells) (human (endogenous in HEK293), UniProt Q8WUM4 1-868).
T1 construct: also called cytosolic ALIX; AIP1
T1 sequence (looked up): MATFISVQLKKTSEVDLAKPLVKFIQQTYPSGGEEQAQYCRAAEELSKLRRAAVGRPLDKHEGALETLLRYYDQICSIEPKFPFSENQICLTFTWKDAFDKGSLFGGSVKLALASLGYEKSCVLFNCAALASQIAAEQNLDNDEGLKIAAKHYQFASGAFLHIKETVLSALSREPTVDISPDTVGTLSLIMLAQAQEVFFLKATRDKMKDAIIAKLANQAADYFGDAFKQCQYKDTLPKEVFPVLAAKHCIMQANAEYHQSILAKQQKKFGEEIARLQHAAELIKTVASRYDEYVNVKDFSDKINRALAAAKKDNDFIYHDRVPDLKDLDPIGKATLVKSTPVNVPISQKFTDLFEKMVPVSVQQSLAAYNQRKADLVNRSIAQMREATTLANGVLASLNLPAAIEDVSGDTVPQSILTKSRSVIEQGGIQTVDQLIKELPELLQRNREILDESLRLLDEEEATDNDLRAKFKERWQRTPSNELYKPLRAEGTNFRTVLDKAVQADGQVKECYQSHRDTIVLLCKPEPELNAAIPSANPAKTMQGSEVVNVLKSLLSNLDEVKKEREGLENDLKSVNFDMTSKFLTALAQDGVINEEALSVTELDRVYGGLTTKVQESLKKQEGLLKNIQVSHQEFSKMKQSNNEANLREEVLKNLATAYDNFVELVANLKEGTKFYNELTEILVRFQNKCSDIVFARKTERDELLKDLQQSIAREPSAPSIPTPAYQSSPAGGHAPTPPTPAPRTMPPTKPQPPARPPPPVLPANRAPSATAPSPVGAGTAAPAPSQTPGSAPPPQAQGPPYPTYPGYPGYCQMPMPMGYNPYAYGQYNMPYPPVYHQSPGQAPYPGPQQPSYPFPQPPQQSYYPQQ
The experiment is described as follows: co-IP; 0.1% Triton X-100-solubilized HEK293 cell lysates, 10 μM CaCl2 added; control and EGF-stimulated cells (Supplementary Figure S3A). As to conditions: partners not purified.

B1: ALG-2 (endogenous, HEK293 cells) (natural protein, human (endogenous in HEK293), UniProt O75340 1-191, looked up)
chain: MAAYSYRPGPGAGPGPAAGAALPDQSFLWNVFQRVDKDRSGVISDTELQQALSNGTWTPFNPVTVRSIISMFDRENKAGVNFSEFTGVWKYITDWQNVFRTYDRDNSGMIDKNELKQALSGFGYRLSDQFHDILIRKFDRQGRGQIAFDDFIQGCIVLQRLTDIFRRYDTDQDGWIQVSYEQYLSMVFSIV
notes: also called endogenous ALG-2; apoptosis-linked gene-2 product; source: endogenous, HEK293 membrane and soluble fractions and 0.1% Triton X-100 lysate
B1: the “fold more ALG-2 interacting with ALIX in EGF-stimulated cells than in control cells” value is 3.5 fold.

The values are drawn from publication PMC4860835, “ALG-2 activates the MVB sorting function of ALIX through relieving its intramolecular interaction” (Cell Discovery, 2015).
